For 5 proteins, heterodimer formation ratio (%) results are on record in US20260217835.

What all share (test): SEC area ratio of heteromultimer after coexpression of full-length heavy chain, light chain and Fc fragment in Expi293F
The target in data set [1] is T1, IgG1 Fc fragment with CH3 modification Q347E/S354Y/T366Y/Y407T (SEQ ID NO: 69).
T1 chain: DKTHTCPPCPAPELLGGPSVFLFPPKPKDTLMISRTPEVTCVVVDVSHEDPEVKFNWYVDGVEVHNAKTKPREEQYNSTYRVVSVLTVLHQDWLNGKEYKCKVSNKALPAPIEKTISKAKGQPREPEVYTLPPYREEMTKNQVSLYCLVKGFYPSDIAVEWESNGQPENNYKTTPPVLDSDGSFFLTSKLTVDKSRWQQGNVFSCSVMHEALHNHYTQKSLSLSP

Data set [2] deals with T2, IgG1 Fc fragment with CH3 modification E356K/K392D/D399K/K439E (SEQ ID NO: 71).
T2 chain: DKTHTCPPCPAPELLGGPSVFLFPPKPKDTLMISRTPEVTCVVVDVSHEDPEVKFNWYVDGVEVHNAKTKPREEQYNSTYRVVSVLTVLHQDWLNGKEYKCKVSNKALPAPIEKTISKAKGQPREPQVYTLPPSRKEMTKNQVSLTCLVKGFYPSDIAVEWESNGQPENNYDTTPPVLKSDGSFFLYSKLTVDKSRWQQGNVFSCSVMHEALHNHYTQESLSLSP

Data set [3] deals with T3, IgG1 Fc fragment with CH3 modification Y349C/E357C/K392D/D399K (SEQ ID NO: 73).
T3 chain: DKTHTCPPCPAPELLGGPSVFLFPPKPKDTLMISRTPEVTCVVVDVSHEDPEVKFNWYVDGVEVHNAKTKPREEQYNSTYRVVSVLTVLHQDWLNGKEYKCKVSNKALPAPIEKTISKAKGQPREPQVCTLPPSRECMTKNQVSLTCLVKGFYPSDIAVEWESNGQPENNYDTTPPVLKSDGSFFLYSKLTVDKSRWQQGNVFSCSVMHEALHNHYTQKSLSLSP

Data set [4] has as its target T4, IgG1 Fc fragment with CH3 modification Q347R/K360E/D399V/F405T/K409W (SEQ ID NO: 66).
T4 chain: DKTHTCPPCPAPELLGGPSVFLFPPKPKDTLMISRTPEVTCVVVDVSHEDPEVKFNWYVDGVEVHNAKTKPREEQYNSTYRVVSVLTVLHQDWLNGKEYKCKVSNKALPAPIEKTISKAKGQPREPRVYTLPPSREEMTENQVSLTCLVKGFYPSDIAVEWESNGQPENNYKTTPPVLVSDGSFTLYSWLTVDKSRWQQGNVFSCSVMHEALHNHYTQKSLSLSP

B1: full-length IgG heavy chain with CH3 modification Y349C/E357C/K392D/D399K (SEQ ID NO: 51), coexpressed with light chain SEQ ID NO: 61 (protein)
chain 1: QVQLQESGPGLVRPSQTLSLTCTVSGYSITSDHAWSWVRQPPGRGLEWIGYISYSGITTYNPSLKSRVTMLRDTSKNQFSLRLSSVTAADTAVYYCARSLARTTAMDYWGQGSLVTVSSASTKGPSVFPLAPSSKSTSGGTAALGCLVKDYFPEPVTVSWNSGALTSGVHTFPAVLQSSGLYSLSSVVTVPSSSLGTQTYICNVNHKPSNTKVDKRVEPKSCDKTHTCPPCPAPELLGGPSVFLFPPKPKDTLMISRTPEVTCVVVDVSHEDPEVKFNWYVDGVEVHNAKTKPREEQYNSTYRVVSVLTVLHQDWLNGKEYKCKVSNKALPAPIEKTISKAKGQPREPQVCTLPPSRECMTKNQVSLTCLVKGFYPSDIAVEWESNGQPENNYDTTPPVLKSDGSFFLYSKLTVDKSRWQQGNVFSCSVMHEALHNHYTQKSLSLSP
chain 2: not shown
Turning to B1, the heterodimer formation ratio (%) in data set [1] is 0%; in data set [2], 0%; in data set [3], 56%; in data set [4], 0%.

B2: full-length IgG heavy chain with CH3 modification E356K/K392D/D399K/K409D (SEQ ID NO: 56), coexpressed with light chain SEQ ID NO: 61 (protein)
chain 1: QVQLQESGPGLVRPSQTLSLTCTVSGYSITSDHAWSWVRQPPGRGLEWIGYISYSGITTYNPSLKSRVTMLRDTSKNQFSLRLSSVTAADTAVYYCARSLARTTAMDYWGQGSLVTVSSASTKGPSVFPLAPSSKSTSGGTAALGCLVKDYFPEPVTVSWNSGALTSGVHTFPAVLQSSGLYSLSSVVTVPSSSLGTQTYICNVNHKPSNTKVDKRVEPKSCDKTHTCPPCPAPELLGGPSVFLFPPKPKDTLMISRTPEVTCVVVDVSHEDPEVKFNWYVDGVEVHNAKTKPREEQYNSTYRVVSVLTVLHQDWLNGKEYKCKVSNKALPAPIEKTISKAKGQPREPQVYTLPPSRKEMTKNQVSLTCLVKGFYPSDIAVEWESNGQPENNYDTTPPVLKSDGSFFLYSDLTVDKSRWQQGNVFSCSVMHEALHNHYTQKSLSLSP
chain 2: not shown
Regarding B2, the heterodimer formation ratio (%) in data set [1] was 0%; in data set [2], 60%; in data set [3], 0%; in data set [4] it was 0%.

B3: full-length IgG heavy chain with CH3 modification T350V/L351Y/T366L/K392L/T394W/F405A/Y407V (SEQ ID NO: 60), coexpressed with light chain SEQ ID NO: 61 (protein)
chain 1: QVQLQESGPGLVRPSQTLSLTCTVSGYSITSDHAWSWVRQPPGRGLEWIGYISYSGITTYNPSLKSRVTMLRDTSKNQFSLRLSSVTAADTAVYYCARSLARTTAMDYWGQGSLVTVSSASTKGPSVFPLAPSSKSTSGGTAALGCLVKDYFPEPVTVSWNSGALTSGVHTFPAVLQSSGLYSLSSVVTVPSSSLGTQTYICNVNHKPSNTKVDKRVEPKSCDKTHTCPPCPAPELLGGPSVFLFPPKPKDTLMISRTPEVTCVVVDVSHEDPEVKFNWYVDGVEVHNAKTKPREEQYNSTYRVVSVLTVLHQDWLNGKEYKCKVSNKALPAPIEKTISKAKGQPREPQVYVYPPSREEMTKNQVSLLCLVKGFYPSDIAVEWESNGQPENNYLTWPPVLDSDGSFALVSKLTVDKSRWQQGNVFSCSVMHEALHNHYTQKSLSLSP
chain 2: not shown
With B3, the heterodimer formation ratio (%) in data set [1], in data set [2], in data set [3] and in data set [4] was 0% in each case.

B4: full-length IgG heavy chain with CH3 modification E345R/Q347R/K360D/T366V/D399M/Y407A/K409V (SEQ ID NO: 55), coexpressed with light chain SEQ ID NO: 61 (protein)
chain 1: QVQLQESGPGLVRPSQTLSLTCTVSGYSITSDHAWSWVRQPPGRGLEWIGYISYSGITTYNPSLKSRVTMLRDTSKNQFSLRLSSVTAADTAVYYCARSLARTTAMDYWGQGSLVTVSSASTKGPSVFPLAPSSKSTSGGTAALGCLVKDYFPEPVTVSWNSGALTSGVHTFPAVLQSSGLYSLSSVVTVPSSSLGTQTYICNVNHKPSNTKVDKRVEPKSCDKTHTCPPCPAPELLGGPSVFLFPPKPKDTLMISRTPEVTCVVVDVSHEDPEVKFNWYVDGVEVHNAKTKPREEQYNSTYRVVSVLTVLHQDWLNGKEYKCKVSNKALPAPIEKTISKAKGQPRRPRVYTLPPSREEMTDNQVSLVCLVKGFYPSDIAVEWESNGQPENNYKTTPPVLMSDGSFFLASVLTVDKSRWQQGNVFSCSVMHEALHNHYTQKSLSLSP
chain 2: not shown
For the protein B4, the heterodimer formation ratio (%) in data set [1] stood at 0%; in data set [2], 0%; in data set [3], 0%; in data set [4], 6%.

B5: full-length IgG heavy chain with CH3 modification E345R/K360E/D399M/Y407A/K409V (SEQ ID NO: 58), coexpressed with light chain SEQ ID NO: 61 (protein)
chain 1: QVQLQESGPGLVRPSQTLSLTCTVSGYSITSDHAWSWVRQPPGRGLEWIGYISYSGITTYNPSLKSRVTMLRDTSKNQFSLRLSSVTAADTAVYYCARSLARTTAMDYWGQGSLVTVSSASTKGPSVFPLAPSSKSTSGGTAALGCLVKDYFPEPVTVSWNSGALTSGVHTFPAVLQSSGLYSLSSVVTVPSSSLGTQTYICNVNHKPSNTKVDKRVEPKSCDKTHTCPPCPAPELLGGPSVFLFPPKPKDTLMISRTPEVTCVVVDVSHEDPEVKFNWYVDGVEVHNAKTKPREEQYNSTYRVVSVLTVLHQDWLNGKEYKCKVSNKALPAPIEKTISKAKGQPRRPQVYTLPPSREEMTENQVSLTCLVKGFYPSDIAVEWESNGQPENNYKTTPPVLMSDGSFFLASVLTVDKSRWQQGNVFSCSVMHEALHNHYTQKSLSLSP
chain 2: not shown
Turning to B5, the heterodimer formation ratio (%) in data set [1] came to 0%; in data set [2], 0%; in data set [3] it was 0%; in data set [4], 4%.
